According to paper doi:10.1101/2022.05.28.493848:

Target: Porcine skeletal muscle α-actin, filamentous (porcine) (UniProt P68137)

Work on “MyoB-MLC-B CaMLD complex, purified (from UniProt Q8I465 1-801; Q8III1 1-652)” yielded a coupling efficiency (kcat/Kapp) of the actin-activated ATPase of 9.
